# According to publication PMC8499471:
# Legend:
# [1] = molecular target: Flag-Kr-h1 (Krüppel-homolog 1 of Locusta migratoria, wildtype, methoprene-exposed) (Locusta migratoria)
# [2] = molecular target: Flag-Kr-h1^S154D (Locusta migratoria)
# [3] = molecular target: Flag-Kr-h1^S154D (Locusta migratoria); remark: listed apart in the source
"E93 reporter activity (dual luciferase, pGL4.10-4×E93 -623 to -606) in S2 cells with 10 uM methoprene, co-expression of Flag-CtBP and Flag-Kr-h1 [1] [% reduction]","E93 reporter activity (dual luciferase, pGL4.10-4×E93 -623 to -606) in S2 cells, co-expression of Flag-CtBP and Flag-Kr-h1^S154D [2] [% reduction]","RL36 reporter activity (dual luciferase, pGL4.10-4×RL36 -1647 to -1632) in S2 cells, co-expression of Flag-CBP and Flag-Kr-h1^S154D (fold increase) [3]",Substance
47,50,,Flag-CtBP (C-terminal binding protein of Locusta migratoria) (natural protein)
,,1.7,Flag-CBP (CREB-binding protein of Locusta migratoria) (natural protein)
